Results published in the supplement of paper PMC12667976.

B1: library; numbered along this chain (parent)
chain: MATDAALRRLLRLHRTEIAVAVDSAFPLLHALADHDVVPEDKFQETLHLKEKEGCPQAFHALLSWLLTQDSTAILDFWRVLFKDYNLERYGRLQPILDSFPKDVDLSQPRKGRKPPAVPKALVPPPRLPTKRKASEEARAAAPAALTPRGTASPGSQLKAKPPKKPESSAEQQRLPLGNGIQTMSASVQRAVAMSSGDVPGARGAVEGILIQQVFESGGSKKCIQVGGEFYTPSKFEDSGSGKNKARSSSGPKPLVRAKGAQGAAPGGGEARLGQQGSVPAPLALPSDPQLHQKNEDECAVCRDGGELICCDGCPRAFHLACLSPPLREIPSGTWRCSSCLQATVQEVQPRAEEPRPQEPPVETPLPPGLRSAGEEVRGPPGEPLAGMDTTLVYKHLPAPPSAAPLPGLDSSALHPLLCVGPEGQQNLAPGARCGVCGDGTDVLRCTHCAAAFHWRCHFPAGTSRPGTGLRCRSCSGDVTPAPVEGVLAPSPARLAPGPAKDDTASHEPALHRDDLESLLSEHTFDGILQWAIQSMARPAAPFPS

Variants of: B1
Test: AIRE transcriptional activation functional score (insulin promoter-GFP; nonsense median 0, synonymous median 1) (normalised score); higher = higher AIRE activity (more reporter activation)
Conditions: with insulin promoter-GFP reporter in HEK293
Description: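 Deep mutational scan of full-length human AIRE (codon-optimized cDNA, DT-POPCode NNN libraries over three regions) integrated at a Bxb1 landing pad in HEK293 cells carrying an insulin core promoter-GFP reporter at a Flp-In site. Cells were sorted for the top 10% GFP about 14 days after transfection. Variant frequency log-ratios (select vs non-select, TileSeq) were rescaled so that the nonsense median is 0 and the synonymous median is 1, then averaged over biological replicates.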

AIRE transcriptional activation functional score of substitutions, site by site:
F77: P -0.416; Q -0.44; R -0.0859; S -0.182; T 0.0954; V 0.192; W -0.255; Y 0.195
W78: A 0.0338; C 0.126; D 0.137; E 0.582; F 0.409; G 0.214; H 0.363; I 0.15; K 0.0822; L 0.134; M 0.308; N -0.791; P 0.554; Q -2.24; R -0.0677; S 0.301; T 0.642; V -0.0156; Y 0.346
R79: A 0.0777; C 0.278; D 0.209; F 0.705; G 0.275; H 1.25; I 0.217; L 0.11; M -0.695; P -0.266; Q 0.112; S 0.372; T -2.81; V 0.88; W 0.0958
V80: A -0.0867; C -0.468; E -0.149; F 0.527; G 0.653; H -0.971; I 1.57; L 0.613; M 0.629; N -6.41; R -0.324; S -0.226; Y 0.606
L81: A -0.165; C 0.822; D 0.439; E 0.209; F 0.331; G -0.169; H -1.4; I 0.143; K -1.81; M -0.00473; N 1.87; P 0.303; R -0.201; S 0.123; T 0.331; V -0.437; W 0.0861; Y 0.0857
F82: A -0.904; C -0.279; D 0.364; G 0.401; H 0.0485; I 0.234; K -0.492; L 0.0208; M -1.23; N -4.23; P -0.365; Q 0.378; R 0.341; S 0.375; T -0.086; V 0.0231; W -0.557; Y 0.443
K83: A 0.537; C 0.194; D -0.0712; E -0.351; F 0.177; G -0.0227; H 0.338; I 0.0909; L 0.753; M -0.821; N 0.0819; P -0.158; Q 0.546; R 0.00955; S 0.122; T 0.432; V -0.175; W 0.152; Y -0.194
D84: A 0.125; C -0.0537; E 0.774; F -0.14; G 0.841; H 0.341; I -0.4; K -0.063; L -0.0937; M -0.309; N 0.535; P 0.652; Q 0.343; R 0.794; S 1.11; T 0.74; V -0.00793; W 1.68; Y 0.473
Y85: C 0.367; D 0.0634; E -2.83; F 0.722; G -1.95; H -0.286; I 0.794; K -1.13; L 0.211; N -0.66; P -0.276; Q -2.11; R -0.639; S 0.113; T 0.418; V 0.302; W -1.85
N86: A -0.248; C 0.345; D -1.05; E -0.323; F -0.398; G -0.0879; H -0.275; I 0.0139; K -0.0593; L 0.306; M 1.34; P 0.153; Q -0.241; R -0.161; S 0.134; T -0.124; V 1.33; W -0.448; Y 0.0334
L87: A 0.0518; C 0.115
